According to ChEMBL document CHEMBL1671727, “Expression, purification, and characterization of Aspergillus fumigatus sterol 14-alpha demethylase (CYP51) isoenzymes A and B” (Antimicrob Agents Chemother, 2010):

Substrate: CC(C)=CCC[C@@H](C)[C@H]1CC[C@@]2(C)C3=C(CC[C@]12C)[C@@]1(C)CC[C@H](O)C(C)(C)[C@@H]1CC3
Assay: Activity of Candida albicans CYP51

B1: Lanosterol 14-alpha demethylase (Candida albicans SC5314) (protein)
chain: MAIVETVIDGINYFLSLSVTQQISILLGVPFVYNLVWQYLYSLRKDRAPLVFYWIPWFGSAASYGQQPYEFFESCRQKYGDVFSFMLLGKIMTVYLGPKGHEFVFNAKLSDVSAEDAYKHLTTPVFGKGVIYDCPNSRLMEQKKFAKFALTTDSFKRYVPKIREEILNYFVTDESFKLKEKTHGVANVMKTQPEITIFTASRSLFGDEMRRIFDRSFAQLYSDLDKGFTPINFVFPNLPLPHYWRRDAAQKKISATYMKEIKSRRERGDIDPNRDLIDSLLIHSTYKDGVKMTDQEIANLLIGILMGGQHTSASTSAWFLLHLGEKPHLQDVIYQEVVELLKEKGGDLNDLTYEDLQKLPSVNNTIKETLRMHMPLHSIFRKVTNPLRIPETNYIVPKGHYVLVSPGYAHTSERYFDNPEDFDPTRWDTAAAKANSVSFNSSDEVDYGFGKVSKGVSSPYLPFGGGRHRCIGEQFAYVQLGTILTTFVYNLRWTIDGYKVPDPDYSSMVVLPTEPAEIIWEKRETCMF
Km: 7.4 µM
